{
  "source": "patent US20200054719",
  "system": "thrombin-activatable fibrinolysis inhibitor (TAFI), purified",
  "data": [
    {"substance": "E-WE thrombin (E. coli derived, non-glycosylated W215A/E217A thrombin)", "values": [
      {"measurement": "activated TAFI, measured as hippuric acid generated from hippuryl-arginine (absorbance at 382 nm)", "value": "E-WE thrombin is a poor activator of TAFI"}
    ]}
  ]
}
